Drawing on paper PMC10175819, this text covers percent reduction of the PLATZ1-DELLA interaction with GRF4 as the third protein and fold stronger interaction than between PLATZ and DELLA for 2 substances.

For assay [1], the target named is RHT1-GRAS (truncated DELLA protein carrying only the C-terminal GRAS domain), yeast hybrid fusion (wheat). Kind of assay: yeast three-hybrid; quantitative alpha-gal Y3H assay; BD and AD fusions with a third protein expressed or not expressed; n = 12.
Assay [2] addresses GROWTH-REGULATING FACTOR 4 (GRF4), yeast hybrid fusion (wheat). The description is as above.

“GROWTH-REGULATING FACTOR 4 (GRF4), yeast hybrid fusion (natural protein)” had a percent reduction of the PLATZ1-DELLA interaction with GRF4 as the third protein in assay [1] of 74%.
Turning to “RHT1-GRAS (truncated DELLA protein carrying only the C-terminal GRAS domain), yeast hybrid fusion (domain or fragment)”, the fold stronger interaction than between PLATZ and DELLA in assay [2] is more than 20 fold.
